# Reference: patent US20220409535A1, “BIOLOGICAL AGENT-EXOSOME COMPOSITIONS AND USES THEREOF” (The University of North Carolina at Chapel Hill, priority 2016, published 2022)
# B1: Catalase alone: Catalase from bovine liver (protein, UniProt P00432 2-527, looked up)
# Catalase: ADNRDPASDQMKHWKEQRAAQKPDVLTTGGGNPVGDKLNSLTVGPRGPLLVQDVVFTDEMAHFDRERIPERVVHAKGAGAFGYFEVTHDITRYSKAKVFEHIGKRTPIAVRFSTVAGESGSADTVRDPRGFAVKFYTEDGNWDLVGNNTPIFFIRDALLFPSFIHSQKRNPQTHLKDPDMVWDFWSLRPESLHQVSFLFSDRGIPDGHRHMNGYGSHTFKLVNANGEAVYCKFHYKTDQGIKNLSVEDAARLAHEDPDYGLRDLFNAIATGNYPSWTLYIQVMTFSEAEIFPFNPFDLTKVWPHGDYPLIPVGKLVLNRNPVNYFAEVEQLAFDPSNMPPGIEPSPDKMLQGRLFAYPDTHRHRLGPNYLQIPVNCPYRARVANYQRDGPMCMMDNQGGAPNYYPNSFSAPEHQPSALEHRTHFSGDVQRFNSANDDNVTQVRTFYLKVLNEEQRKRLCENIAGHLKDAQLFIQKKAVKNFSDVHPEYGSRIQALLDKYNEEKPKNAVHTYVQHGSHLSAREKANL
# B2: BDNF: brain derived neurotrophic factor (protein, UniProt P23560 19-247, looked up)
# Neurotrophic factor BDNF …: APMKEANIRGQGGLAYPGVRTHGTLESVNGPKAGSRGLTSLADTFEHVIEELLDEDQKVRPNEENNKDADLYTSRVMLSSQVPLEPPLLFLLEEYKNYLDAANMSMRVRRHSDPARRGELSVCDSISEWVTAADKKTAVDMSGGTVTVLEKVPVSKGQLKQYFYETKCNPMGYTKEGCRGIDKRHWNSQCRTTQSYVRALTMDSKKRIGWRFIRIDTSCVCTLTIKRGR
# Experiments:
# hCMEC/D3 cells = assay: Flow cytometry of cell uptake of Mϕ exosomes and endocytosis markers; assay type: cell-based, human; settings: for effect on uptake of Mϕ exosomes: CM-DiI labeled exosomes, 4 h; for effect on uptake of respective endocytosis marker: sucrose of transferrin, nystatin of CTB, EIPA of dextran (70 kDa)
# Protocol: Flow Cytometry of Cell Uptake. hCMEC/D3 cells were grown in 24-well plates at […] for 4-5 days to reach confluence. Exosomes were labeled by adding CM-DiI dyes (2 μg/ml, Life Technologies) to the medium before the first […] pelleting step. In the uptake mechanism studies, the cells were pretreated with endocytosis inhibitors, carbohydrates or EGTA for 0.5 h, and then co-treated with CM-DiI labeled exosomes (0.6×10^10 exosomes/ml) for 4 h. The inhibition of endocytosis markers uptake was studied similarly. The endocytosis markers used were Alexa Fluor 488-Transferrin (10 μg/ml, Life technologies) for clathrin mediated endocytosis, Alexa Fluor 488-CTB (5 μg/ml, Life technologies) for caveolae mediated endocytosis, and FITC-Dextran (70 kDa, Sigma) (10 mg/ml) for macropinocytosis. The antibody block assays were done by co-incubating exosomes with antibodies or isotope controls at 100 μg/ml for 4 h. The cells were washed trice by PBS, detached by 0.25% trypsin/EDTA, collected by centrifugation at 100 g for 10 min, fixed with 4% paraformaldehyde for 10 min, and then resuspended in 0.35 ml PBS. Viable singlets were gated based on forward scatter and side scatter. 5,000-10,000 viable singlets were recorded for each sample on Becton Dickinson LSRII (BD Biosciences) using 488 nm and 532 nm lasers. Unless otherwise noted in figure legend, data are not normalized and reported as mean fluorescence±SD of 3 replicate wells.
# [1] = Shinoda et al.; cited from earlier work
# [2] = PK and distribution in healthy CD-1 mice; assay type: in vivo, mouse; settings: jugular vein
# Protocol: Iodine Labeling. Exosomes and proteins were labeled with iodine by chloramine-T method (Yi et al., J. Controlled Release 191:34 (2014)). Briefly, exosomes or proteins were mixed with 1 mCi of Na^125I or Na^131I (Perkin Elmer) and 10 μg of chloramine-T in phosphate buffer (0.25 M, pH 7.5) for 60 s. Labeled exosomes and proteins were purified by Illustra Nap-5 columns (Life technologies) and collected in tubes pretreated with 1% BSA in PBS to prevent nonspecific adsorption. The iodine association (iodine in labeled sample/total iodine) was determined by trichloroacetic acid precipitation method (Yi et al., J. Controlled Release 191:34 (2014)). Briefly, 1 μl of purified samples was mixed with 0.5 ml of 1% BSA in PBS and 0.5 ml of 30% TCA, and then centrifuged at 5400 g for 10 min. The resulting pellet and supernatant were counted on r-counter (PerkinElmer). The iodine association was calculated as the percentage of pellet radioactivity to total radioactivity.
# (§1) Animal Procedure. Mice were anesthetized with 40% urethane (4 g/kg) by intraperitoneal injection. Iodine labeled substances (4×10^5 cpm) were injected to the right jugular vein. At each time point, blood was collected from the left carotid artery, allowed to clot and then centrifuged at 5400 g for 10 min to collect serum. The whole brain and peripheral organs were removed and weighed immediately after blood sampling. The radioactivity of serum and tissues were counted and normalized to injected dose (ID) by volume (ml) or weight (g) (% ID/ml or % ID/g). An injection check representing ID was also counted (n=3).
# (§2) PK data analysis. The noncompartmental PK parameters Vss (ml), Cl (ml/min), MRTlast and MRTinf (h) were estimated using Phoenix® WinNonlin® 6.3 (Pharsight). The Ki (slope) and Vi (y-intercept) were calculated from the linear portion of multiple-time regression analysis (Price et al., J. Pharmacol. Exper. Ther. 333:253 (2010); Patlak et al., J. Cerebral Blood Flow Metab. 3:1 (1983); Patlak et al., J. Cerebral Blood Flow Metab. 5:584 (1985)). Brain/serum ratio (Am/Cpt, ml/g) of co-injected BSA was used to correct for the vascular space or leakage (Banks et al, Brain Behav. Immun. 2010, 24:102 (2010)), and subtracted from that of tested substance to get the delta brain/serum ratio. The delta brain/serum ratio was plotted against exposure time following equation
# ICAM-1 = ICAM-1 expression in hCMEC/D3 cells by western blot; assay type: cell-based, human
# Protocol: Protein expression was determined by western blot using β-actin as loading control.
# [3] = calculated from the molecular mass of the enzyme; cited from earlier work
# [4] = Preservation of catalase enzymatic activity and stability of exoCAT; assay type: physicochemical; settings: sonication conditions
# Protocol: Enzymatic activity of catalase loaded into exosomes: The loading efficiency for different exoCAT formulations was assessed by catalase enzymatic activity using hydrogen peroxide decomposition assay (Zhao et al., Nanomedicine (Lond) 6:25 (2011)). For this purpose, different exoCAT formulations were incubated with pronase (0.1-0.2 mg/mL) for 3 hours at 37° C. Following the incubation, the aliquots were subjected for catalytic activity assessment as described above. The same assay was used to examine the preservation of catalase enzymatic activity in exosomes against proteases degradation. Stability of catalase was expressed in the residual activity vs. initial activity of catalase.
# 6-OHDA-intoxicated mice = assay: Immunohistochemical and stereological analyses in 6-OHDA PD mouse model; settings: i.n.
# Protocol: For the detection of microglia activation, tissue sections were incubated with primary monoclonal rat anti-mouse anti-CD11b antibodies (1:500 dilution), and secondary biotinylated goat anti-rat antibodies (Vector Laboratories, Burlingame, Calif., 1:200 dilution). […] In addition, levels of astrocytosis were assessed in the ventral midbrain region by fluorescent analysis of glial fibrillary acidic protein (GFAP) expression. For the GFAP staining, tissue sections were permeabilized with 0.01% Triton X-100 in TBS for 30 minutes and blocked for 1 hour with 10% normal goat serum (NGS, Vector Laboratories Inc., Burlingame, Calif.), then incubated with rabbit anti-GFAP primary polyclonal antibodies ab7260 (AbCam, Cambridge, Mass.) 1:100 dilution for 16 hours at 4° C. […] Immunoreactivity was evaluated by fluorescent analysis using confocal microscope Zeiss 510 Meta Confocal Laser Scanning Microscope (Jena, Germany), and ImageJ software (NIH, Bethesda, Mass., USA).
# PC12 cells = assay: Cell viability (MTT) of PC12 cells exposed to 6-OHDA; assay type: cell-based, rat
# Protocol: Cell viability assay: The protection of PC12 cell by exoCAT prepared by sonication was assessed by MTT assay. For this purpose, PC12 cells (1×10^5 cells/mL) were seeded into a 96-well plate and allowed to attach overnight. Then, the cells were exposed to 200 μM 6-OHDA and different exoCAT formulations, or catalase alone, or empty exosomes for four hours. Following the incubation, the cells were washed 3 times with ice-cold PBS, and incubated with the corresponding exoCAT formulations, or catalase alone, or empty exosomes for another 24 hours. Following the treatment, 20 μL MTT (5 mg/mL) was added into each well. After 3 hours of incubation at 37° C., the medium containing MTT was removed; and 100 μL DMSO was added into each well to dissolve the purple MTT formazan. Absorbances were read at λ=570 nm by a microplate reader, and cell viability was expressed as a percentage of viable cells in the treated groups compared to the untreated control group.
# [5] = Size of catalase exosomal formulations by DLS and NTA; assay type: physicochemical; settings: DLS
# Protocol: Characterization of different exoCAT formulations by (Dynamic Light Scattering) DLS, (Atomic Force Microscopy) AFM, Nanoparticle Tracking Analysis (NTA), and Hyperspectral microscopy: The effective hydrodynamic diameter of empty exosomes, or exosomes loaded with catalase was measured by DLS using the ZetaPlus' Zeta Potential Analyzer (Brookhaven Instruments, […]., USA) equipped with a 35 mW solid state laser (658 nm laser) as described in (Bronich et al., J. Amer. Chem. Soc. 122:8339 (2000); Vinogradov et al., Colloids Surfaces B-Biointerfaces 16:291 (1999)). The size, distribution, and number of particles for various exosomal formulations were also examined by NTA. For this purpose, exoCAT formulations were prepared at concentration 0.01 mg/mL, and evaluated using NanoSight 500, Version 2.2 (Wiltshire, United Kingdom). The morphology of exoCAT aggregates was investigated by AFM. Different exoCAT formulations were prepared in 50 mM phosphate buffer, pH 7.4 at total protein 10 μg/mL. A drop of the sample was placed on a glass slide, and dried under an argon flow. The AFM imaging was operated as described earlier (Zhao et al., Nanomedicine (Lond) 6:25 (2011)).
# [6] = Patterson et al.; cited from earlier work
# [7] = Brain delivery of BDNF and Mϕ exosomes complex; assay type: in vivo, mouse; settings: brain-inflamed mice, 10 min
# Protocol: as §1
# as §2, with “The delta brain/serum ratio was plotted against exposure time following equation” left out
# We further determined if Mϕ exosomes would ferry BDNF to the brain. […]
molecule,measurement,setting,value
C[C@@H]1[C@H](O)[C@@H](C)/C=C/C=C/CC/C=C/C=C/C=C/C=C/C(O[C@H]2O[C@H](C)[C@@H](O)[C@H](N)[C@@H]2O)CC2O[C@](O)(CC(O)C(O)CCC(O)CC(O)CC(O)CC(=O)O[C@H]1C)CC(O)C2C(=O)O (stereo partly drawn) [nystatin],effect on uptake of Mϕ exosomes,hCMEC/D3 cells,significantly decreased the uptake of Mϕ exosomes
same,effect on uptake of respective endocytosis marker,hCMEC/D3 cells,diminished uptake of a respective endocytosis marker
"^131I-BSA: 131I-labeled bovine serum albumin, co-injected vascular marker","Cl, previously published data",[1],0.0035 mL/min
same,"Vss, previously published data",[1],1.5 mL
same,Cl,[2],0.0039 mL/min
same,MRTinf,[2],6.10 h
same,MRTlast,[2],0.94 h
same,Vss,[2],1.44 mL
"O=C(O)CN(CCOCCOCCN(CC(=O)O)CC(=O)O)CC(=O)O [EGTA, ethylene glycol-bis(2-aminoethylether)-N, N, N′, N′-tetraacetic acid]",effect on uptake of Mϕ exosomes,hCMEC/D3 cells,decreased
"CCN(c1nc(N)c(C(=O)N=C(N)N)nc1Cl)C(C)C [EIPA, 5-(N-Ethyl-N-isopropyl) amiloride]",effect on uptake of Mϕ exosomes,hCMEC/D3 cells,significantly decreased the uptake of Mϕ exosomes
same,effect on uptake of respective endocytosis marker,hCMEC/D3 cells,diminished uptake of a respective endocytosis marker
OC[C@H]1O[C@@](CO)(O[C@H]2O[C@H](CO)[C@@H](O)[C@H](O)[C@H]2O)[C@@H](O)[C@@H]1O [sucrose],effect on uptake of Mϕ exosomes,hCMEC/D3 cells,significantly decreased the uptake of Mϕ exosomes
same,effect on uptake of respective endocytosis marker,hCMEC/D3 cells,diminished uptake of a respective endocytosis marker
N[C@H]1C(O)O[C@H](CO)[C@@H](O)[C@@H]1O (stereo partly drawn) [glucosamine],ICAM-1 expression,ICAM-1,did not inhibit the expression of ICAM-1
same,effect on uptake of Mϕ exosomes,hCMEC/D3 cells,inhibited the uptake at lower concentrations
B1,theoretical diameter of a single protein globule,[3],10.5 nm
same,catalase enzymatic activity upon sonication,[4],14%
same,anti-inflammatory and neuroprotective effect,6-OHDA-intoxicated mice,not effective in decreasing inflammation or providing neuroprotection
same,"neuroprotective activity (neuronal survival, MTT)",PC12 cells,did not protect PC12 cells
same,Deff (nm),[5],9.5 nm
same,PdI,[5],0.10
same,Deff (nm),[5]; listed as naked catalase,9.5 nm
B2,isoelectric point,[6],9.99
same,brain accumulation of BDNF,[7],the difference was not significant
